The values that follow come from patent publication US20240003906A1, “Biomarker of Fibrosis” (Nordic Bioscience A/S, priority 2020, published 2024).

Where no end group is shown, it is not given here.

Assay [1] has as its target T1, Elongated peptide KAGGFAPYYGD
T1 peptide: KAGGFAPYYGD
In words: indirect competitive ELISA (final inhibition).

Assay [2] addresses T2, Truncated peptide KAGGFAPYY
T2 peptide: KAGGFAPYY
Nature of the assay: indirect competitive ELISA (final inhibition).

The target in assay [3] is T3, Rat dimeric peptide CKSGGFSPYYG x CKSGGFSPYYG (rat, also: homodimer cross-linked by disulphide N-terminal to antibody binding site, disulfide at 1, other end not in the chain).
T3 construct: also called dimeric rat peptide; rat selection peptide
T3 peptide: CKSGGFSPYYG
In words: direct sandwich ELISA, NBH-242 as capture and detection antibody. The protocol:
(§1) Unbound primary antibody and sample was discarded, and the wells were washed with washing buffer. Subsequently, 100 μL chemiluminescence substrate was added to the wells, plates were incubated for 3 minutes at 20° C. in the dark rotating 300 rpm. Finally, the luminescence emitted was quantified with an ELISA reader (VersaMAX; Molecular Devices, Wokingham Berkshire, UK) set to measure the luminescence at 450 nm and 650 nm. […] Unknown sample measurements were interpolated with the standard curve to obtain the concentration (ng/mL) of the CTX-III fragment.
(§2) By plotting the calculated percentage recovery, the specificity of the antibodies in the direct sandwich ELISA towards the dimeric peptides was tested.

Assay [4] has as its target T4, Dimeric selection peptide CKAGGFAPYYG x CKAGGFAPYYG (human, also: homodimer linked by Cys1 disulphide, disulfide at 1, other end not in the chain).
T4 construct: Synthetic dimer of two identical strands; standard of the sandwich ELISA; also called dimeric human selection peptide
T4 peptide: CKAGGFAPYYG
Described as above. Here is the method:
as §1, §2

Assay [5] deals with T5, Dimeric elongated peptide CKAGGFAPYYGD x CKAGGFAPYYGD (also: homodimer linked by Cys1 disulphide, disulfide at 1, other end not in the chain).
T5 peptide: CKAGGFAPYYGD
The description is as above. The protocol: as §1, §2

The target in assay [6] is T6, Dimeric truncated peptide CKAGGFAPYY x CKAGGFAPYY (also: homodimer linked by Cys1 disulphide, disulfide at 1, other end not in the chain).
T6 peptide: CKAGGFAPYY
Described as above. The protocol: as §1, §2

Assay [7] deals with T7, Selection peptide KAGGFAPYYG (human).
T7 construct: Synthetic monomeric peptide (Genscript); also called human selection peptide
T7 peptide: KAGGFAPYYG
In words: indirect competitive ELISA, selection peptide competing with coated biotin-KAGGFAPYYG

Assay [8] has as its target T8, Rat dimeric peptide (CKSGGFSPYYG×CKSGGFSPYYG) (Rattus norvegicus, UniProt P13941).
T8 construct: purchased Genscript, Piscataway, NJ, USA; host or cells: synthetic peptide
Nature of the assay: Direct sandwich ELISA specificity towards dimeric peptides. Type of assay: binding. The note with it: NBH-242 as capture and detection antibody, FIG. 3. The protocol:
(§3) 96-well plates precoated with streptavidin (Roche Diagnostic's, Hvidovre, Denmark, cat. No. 11940279) were coated with 100 μL of the biotinylated antibody targeting the CTX-III fragment diluted 1+100 in assay buffer (50 mM PBS, 1% BSA, 1% Tween-20, 150 mM NaCl, pH 7.4) for 30 minutes at room temperature rotating at 300 rounds-per-minute (rpm). Unbound biotinylated capture antibody was discarded, and the wells were washed with washing buffer (25 mM TRIZMA, 50 mM NaCl, 0.036% Bronidox L5, 0.1% Tween 20) using a standardized ELISA plate washing machine (BioTek® Instruments, Microplate washer, ELx405 Select CW, Winooski, USA). All samples and the detection antibody were diluted in incubation buffer (50 mM PBS, 1% BSA, 1% Tween-20, 150 mM NaCl, 5% Liquid II, pH 7.4), with the detection antibody being diluted 1+100. 20 μL of sample material and controls were incubated with 100 μL HRP labelled detection antibody targeting the CTX-III fragment, at 4° C. for 20 hours and agitated at 300 rpm. […] Finally, the luminescence emitted was quantified with an ELISA reader (VersaMAX; Molecular Devices, Wokingham Berkshire, UK) set to measure the luminescence at 450 nm and 650 nm. […]
(§4) The lower limit of detection (LLOD) was determined from 21 zero samples (i.e. incubation buffer) and calculated as the mean+3× standard deviation, whereas the upper limit of detection (ULOD) was determined from 10 measurements of the dimeric selection peptide calculated as the mean+3× standard deviation. The inter- and intra-assay variation was determined by 10 independent runs of five quality control (QC) samples with minimum three of these being healthy human plasma EDTA samples (Valley Biomedical, Winchester, VA, USA), with each run consisting of double determinations of the samples. […] Assay linearity was determined by calculating the percentage recovery (100%±20%) of a 1:6-fold dilution of healthy human plasma EDTA samples with a significant concentration, using the undiluted sample as reference. […] Subsequently, the percentage recovery between the control sample and the low or high interferent samples were calculated.

The target in assay [9] is T9, dimeric elongated peptide (CKAGGFAPYYGD×CKAGGFAPYYGD (SEQ ID NO: 17)) (Homo sapiens, UniProt P02461).
T9 construct: purchased Genscript, Piscataway, NJ, USA; host or cells: synthetic peptide
The assay is described as above. It is filed as binding. The settings on record: NBH-242 as capture and detection antibody, FIG. 3. The protocol:
as §3, §4

Assay [10] has as its target T10, dimeric truncated peptide (CKAGGFAPYY×CKAGGFAPYY (SEQ ID NO: 18)) (Homo sapiens, UniProt P02461).
T10 construct: purchased Genscript, Piscataway, NJ, USA; host or cells: synthetic peptide
Described as above. The note with it: NBH-242 as capture and detection antibody, FIG. 3. It is filed as binding. The protocol:
as §3, §4

B1: monoclonal antibody NBH-242 (antibody, mouse IgG2a, kappa, V domains shown)
VH: QVQLQQSGAELVRPGVSVKISCKGSGHTFTDHGMHWVKQSQAKSLEWIGVISTYYGDATYNQKFKGKATMTVDKSSSTAYMELARLTSEDSAIYYCARSMGGNYVGTGFAYWGQGTLVTVSA
VL: DIVMTQAAPSVPVTPGESVSISCRSSKSLLHSNGNTYLYWFLQRPGQSPQLLIYRMSNLASGVPDRFSGSGSGTAFTLRISRVEAEDVGVYYCMQHLEFPLTFGAGTKLELKR
notes: In the sandwich ELISA the antibody was biotinylated (capture) and HRP-labelled (detection); also called monoclonal NBH-242 antibody; capture antibody
In the case of B1, the binding result is “no binding” in [1]; “no binding” in assay [2]; “no binding” in assay [3]; “binds” in assay [4]; “no binding” in assay [5]; “no binding” in assay [6]. The binding result in assay [7] is on record as “binds”.

B2: NBH-242: neo-epitope specific antibody directed towards the C-terminal neo-epitope in the C-terminal telopeptide of type III collagen (CT-III), …-COOH (antibody)
heavy: QVQLQQSGAELVRPGVSVKISCKGSGHTFTDHGMHWVKQSQAKSLEWIGVISTYYGDATYNQKFKGKATMTVDKSSSTAYMELARLTSEDSAIYYCARSMGGNYVGTGFAYWGQGTLVTVSAAKTTAPSVYPLAPVCGDTTGSSVTLGCLVKGYFPEPVTLTWNSGSLSSGVHTFPAVLQSDLYTLSSSVTVTSSTWPSQSITCNVAHPASSTKVDKKIEPRGPTIKPCPPCKCPAPNLLGGPSVFIFPPKIKDVLMISLSPIVTCVVVDVSEDDPDVQISWFVNNVEVHTAQTQTHREDYNSTLRVVSALPIQHQDWMSGKEFKCKVNNKDLPAPIERTISKPKGSVRAPQVYVLPPPEEEMTKKQVTLTCMVTDFMPEDIYVEWTNNGKTELNYKNTEPVLDSDGSYFMYSKLRVEKKNWVERNSYSCSVVHEGLHNHHTTKSFSRTPGK
light: DIVMTQAAPSVPVTPGESVSISCRSSKSLLHSNGNTYLYWFLQRPGQSPQLLIYRMSNLASGVPDRFSGSGSGTAFTLRISRVEAEDVGVYYCMQHLEFPLTFGAGTKLELKRADAAPTVSIFPPSSEQLTSGGASVVCFLNNFYPKDINVKWKIDGSERQNGVLNSWTDQDSKDSTYSMSSTLTLTKDEYERHNSYTCEATHKTSTSPIVKSFNRNE
As to B2, the “reactivity towards the dimeric rat peptide” value in [8] was “no reactivity”. The “reactivity towards the dimeric elongated peptide” value in assay [9] is listed as “no reactivity”. The “reactivity towards the dimeric truncated peptide” value in assay [10] is listed as “no reactivity”.
